Measurements reported in PMC2918618, “Characterization of the TnsD-attTn7 complex that promotes site-specific insertion of Tn7” (Mobile DNA, 2010).

Target: T1, TnsD 1-399 (Escherichia coli (transposon Tn7), UniProt P13991 1-399)
T1 sequence: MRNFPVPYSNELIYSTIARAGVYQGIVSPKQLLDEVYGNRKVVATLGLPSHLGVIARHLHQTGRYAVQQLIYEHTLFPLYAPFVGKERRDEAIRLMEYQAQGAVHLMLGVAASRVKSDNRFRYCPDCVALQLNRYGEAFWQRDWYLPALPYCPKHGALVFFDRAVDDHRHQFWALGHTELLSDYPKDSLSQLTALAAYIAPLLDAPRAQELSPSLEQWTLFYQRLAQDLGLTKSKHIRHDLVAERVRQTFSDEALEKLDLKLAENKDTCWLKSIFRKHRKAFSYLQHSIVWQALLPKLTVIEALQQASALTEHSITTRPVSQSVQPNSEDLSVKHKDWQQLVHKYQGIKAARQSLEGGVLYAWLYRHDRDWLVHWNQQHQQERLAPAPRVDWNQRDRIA
Test: EMSA; Gel-shift buffer not given (as described in ref. 6); TnsD stored in 500 mM KCl, 50 mM Tris-HCl pH 8.0, 1 mM EDTA, 2 mM DTT, 25% glycerol
Details: protein: recombinant

B1: attTn7 wt (+23 to +58) (dsDNA)
DNA 1: CCGCGTAACCTGGCAAAATCGGTTACGGTTGAGTAA
DNA 2: TTACTCAACCGTAACCGATTTTGCCAGGTTACGCGG
- binding result: no binding
